The series concerns the target T1, Retinoic acid receptor alpha (RAR-alpha) (UniProt P10276).
T1 sequence: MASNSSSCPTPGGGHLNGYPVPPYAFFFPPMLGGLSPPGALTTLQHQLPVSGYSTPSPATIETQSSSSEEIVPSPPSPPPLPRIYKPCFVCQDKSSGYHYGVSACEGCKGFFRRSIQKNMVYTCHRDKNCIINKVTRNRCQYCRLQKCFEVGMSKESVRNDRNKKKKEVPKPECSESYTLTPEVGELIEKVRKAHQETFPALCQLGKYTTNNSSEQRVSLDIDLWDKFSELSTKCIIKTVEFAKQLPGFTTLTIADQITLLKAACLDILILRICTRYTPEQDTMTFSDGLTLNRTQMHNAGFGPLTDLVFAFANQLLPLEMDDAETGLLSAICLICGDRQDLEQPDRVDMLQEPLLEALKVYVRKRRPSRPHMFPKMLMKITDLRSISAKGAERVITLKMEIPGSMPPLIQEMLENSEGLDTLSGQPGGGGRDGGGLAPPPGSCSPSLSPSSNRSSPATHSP
The experiment in a line: cell_activity.

For the setting “same as empty DMTV-LUC (2-fold)”, “NR oligo (45 bp located 24 bp 3' of bRE1)” had an activity (fold induction) of 2.

Regarding 183 bp SmaI fragment of RARb promoter, the activity (fold induction) (CV-1 cells, 10^-6 M retinoic acid, reverse orientation 9-fold) turned out to be 10.

These data come from patent US5091518.
